Experimental findings from patent publication US20210061891A1 are described below.

What all share (experiment): ELISA on streptavidin-immobilized biotinylated 15mer peptides; area under the signal vs antibody concentration curve
Test [1] deals with residue mutated to A: T.
For test [2], the target named is residue mutated to A: N.
The target in test [3] is residue mutated to A: I.

B1: Ab7960/293i (antibody, V domains shown)
VH: LVESGGGVVQPGKSLRLSCVASGFSFSTYGMHWVRQAPGKGLEWVAVMSFDGKTKYYADSVKGRFTISRDNPKNTLYLQMNSLRSEDTAVYYCAKGGAAAAVFDSWGPGILLTVSS
VL: MTQSPNSLAVSLGGRATINCKASQSILYRSNNKNYLAWYQHKAGQPPKLLIYWASTRESGVPERFSGSGSRTDFTLTINGLQAEDVAVYYCQQYYNPPWTFGQGTKVEIK
In test [1], B1 registered a percent of binding to the natural peptide (AUC) of 4%.

B2: Ab7961/293i (antibody, V domains shown)
VH: LVESGGGVVQPGKSLRLSCVASGFTFSSYGMHWVRQAPGKGLEWVAVMSFDGKTKYYADSVKGRFTISRDNPKNTLYLQMNSLRSEDTAVYYCAKGGAAAAVFDSWGQGILLTVSS
VL: MTQSPNSLAVSLGGRATINCKTSQSILYRSNNKNYLAWYQHKSGQPPKLLIYWASTRESGVPDRFSGSGSRTDFTLTISGLQAEDVAVYYCQQYYNPPWTFGQGTKVEIK
Regarding B2, the percent of binding to the natural peptide (AUC) in test [2] is 4%.

B3: Ab7979 (antibody, V domains shown)
VH: LVESGGGVVQPGKSLRLSCVASGFTFSTYGMHWVRQAPGKGLEWVAVMSFDGKTKYYADSVKGRFTISRDNPKNTLYLQMNSLRSEDTAVYYCAKGGAAAAVFDSWGQGILLTVSS
VL: MTQSPNSLAVSLGGRATINCKTSQSILYRSNNKNYLAWYQHKPGQPPKLLIYWASTRESRVPDRFSGSGSRTDFTLTISGLQAEDVAVYYCQQYYNPPWTFGQGTKVEIK
Take B3: the percent of binding to the natural peptide (AUC) in test [1] came out at 34%.

B4: Ab7955 (antibody, V domains shown)
VH: LVESGGGVVRPGRSLRLSCVASGFTFNAYGMHWVRQGPGKGLEWLAVISYEGKTVYYADSVKDRFTISRDNSRNTVSLHLNNLRGEDTAVYYCAKGSASAAVLQHWGQGTLVSVTS
VL: MTQSPGSLAVSLGSRATINCKSSRSLLYRSNNKNYLAWYQQKPGQSPRLLIYWASSRESGVPDRFSGGGSGTSFTLTISSLQAEDVAVYYCQQYFNPPWTFGQGTKVEIK
Regarding B4, the percent of binding to the natural peptide (AUC) in test [3] turned out to be 8%.
